2 molecules from patent US20030040012A1 (published 2003) can be followed below.

The target in test [1] is T1, NpwBP (Homo sapiens (Human), UniProt Q9Y2W2 1-641).
T1 construct: Expressed inside COS7 cells, without an added protein A because it has its own nuclear localization signal
T1 sequence: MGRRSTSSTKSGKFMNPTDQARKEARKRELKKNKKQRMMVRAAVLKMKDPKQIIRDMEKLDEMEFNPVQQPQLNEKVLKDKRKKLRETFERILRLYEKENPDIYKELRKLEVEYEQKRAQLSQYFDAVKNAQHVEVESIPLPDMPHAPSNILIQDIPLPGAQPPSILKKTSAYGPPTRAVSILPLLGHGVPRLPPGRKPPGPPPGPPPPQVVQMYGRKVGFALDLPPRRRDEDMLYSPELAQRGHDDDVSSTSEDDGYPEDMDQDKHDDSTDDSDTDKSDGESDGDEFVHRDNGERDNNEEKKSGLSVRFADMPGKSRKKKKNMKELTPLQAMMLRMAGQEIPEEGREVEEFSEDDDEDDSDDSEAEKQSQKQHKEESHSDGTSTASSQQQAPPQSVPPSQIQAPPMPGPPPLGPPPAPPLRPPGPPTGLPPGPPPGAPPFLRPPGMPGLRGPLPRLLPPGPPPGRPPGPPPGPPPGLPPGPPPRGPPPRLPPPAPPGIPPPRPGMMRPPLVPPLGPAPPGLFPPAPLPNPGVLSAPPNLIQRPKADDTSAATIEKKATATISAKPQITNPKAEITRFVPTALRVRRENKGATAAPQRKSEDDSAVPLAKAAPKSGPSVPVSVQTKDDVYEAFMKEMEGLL
In words: competition by co-expression in COS7 cells, GFP localization.

For test [2], the target named is T2, fusion protein NpwBP(P2)-GFP (UniProt P42212 1-238 = GFP, limits assumed).
T2 construct: Expressed inside COS7 cells from pKA1-NpwBP(P2)-GFP; also called NpwBP-GFP
The test can be described thus: co-expression in COS7 cells, fluorescence microscopy of GFP localization. The method, then:
After the medium was removed, the cell sur were washed with a phosphate buffer solution (PBS), and then further washed with a 50 mM Tris-HCl (pH 7.5)-containing DMEM. To these cells, added was a suspension comprising 1 μl of a plasmid suspension, 0.6 ml of DMEM and 3 μl of […]™ (from IBF), and incubated in the presence of 5% CO₂ at 37° C. for 12 hours. Then, the cells were washed with PBS, and fixed with 4% peraformaldehyde-containing PBS at room temperature for 10 minutes. The thus-fixed cells were washed with PBS, then treated with 0.2% Triton X-100, and thereafter blocked with 5% milk PBS. […]
First, pKA1-NpwBP(P1)-GFP or pKA1-NpwBP(P2)-GFP was singly introduced into COS7 cells, and the localization of these fusion proteins in the cells was checked through fluorescence microscopy based on the green fluorescence of GFP as the index thereof. […] Next, along with these NpwBP-GFP fusion protein expression vectors, an Npw38 expression vector, pKA1-Npw38 was introduced into COS7 cells, and the green fluorescence was localized in the nucleus of each cell (FIG. 3b). […] On the other hand, when Npw38(W52A) (A. Komuro et al., Nucl. Acids Res., 27: 1957-1965, 1999), which is a WW domain variant of Npw38, was expressed in the cells in place of HA-Npw38, or when GFP was expressed in the cells in place of NpwBP-GFP, no intranuclear localization of the green fluorescence was found.

B1: fusion protein HA-Npw38 (other)
chain: MPLPVALQTRLAKRGILKHLEPEPEEEIIAEDYDDDPVDYEATRLEGLPPSWYKVFDPSCGLPYYWNADTDLVSWLSPHDPNSVVTKSAKKLRSSNADAEEKLDRSHDKSDRGHDKSDRSHEKLDRGHDKSDRGHDKSDRDRERGYDKVDRERERDRERDRDRGYDKADREEGKERRHHRREELAPYPKSKKAVSRKDEELDPMDPSSYSDAPRGTWSTGLPKRNEAKTGADTTAAGPLFQQRPYPSPGAVLRANAEASRTKQQD
notes: All are treated as the same molecule; not shown: HA tag (protein A of fusion A-X)
As to B1, the binding result in test [1] and in test [2] was “binds” each time.

B2: Npw38(W52A), a WW domain variant of Npw38 (other)
chain: MPLPVALQTRLAKRGILKHLEPEPEEEIIAEDYDDDPVDYEATRLEGLPPSAYKVFDPSCGLPYYWNADTDLVSWLSPHDPNSVVTKSAKKLRSSNADAEEKLDRSHDKSDRGHDKSDRSHEKLDRGHDKSDRGHDKSDRDRERGYDKVDRERERDRERDRDRGYDKADREEGKERRHHRREELAPYPKSKKAVSRKDEELDPMDPSSYSDAPRGTWSTGLPKRNEAKTGADTTAAGPLFQQRPYPSPGAVLRANAEASRTKQQD
notes: Expressed in COS7 cells in place of HA-Npw38
For the molecule B2, in test [2], the binding result is listed as “no binding”.
